# From IntAct's records for PubMed 16990133
# B1: Protein SST2 (Saccharomyces cerevisiae), P11972 (parent)
# chain: MVDKNRTLHELSSKNFSRTPNGLIFTNDLKTVYSIFLICLDLKEKKHSSDTKSFLLTAFTKHFHFTFTYQEAIKAMGQLELKVDMNTTCINVSYNIKPSLARHLLTLFMSSKLLHTPQDRTRGEPKEKVLFQPTPKGVAVLQKYVRDIGLKTMPDILLSSFNSMKLFTFERSSVTDSIIHSDYLIHILFIKMMGAKPNVWSPTNADDPLPCLSSLLEYTNNDDTFTFEKSKPEQGWQAQIGNIDINDLERVSPLAHRFFTNPDSESHTQYYVSNAGIRLFENKTFGTSKKIVIKYTFTTKAIWQWIMDCTDIMHVKEAVSLAALFLKTGLIVPVLLQPSRTDKKKFQISRSSFFTLSKRGWDLVSWTGCKSNNIRAPNGSTIDLDFTLRGHMTVRDEKKTLDDSEGFSQDMLISSSNLNKLDYVLTDPGMRYLFRRHLEKELCVENLDVFIEIKRFLKKMTILKKLIDSKHCDKKSNTSTSKNNIVKTIDSALMKQANECLEMAYHIYSSYIMIGSPYQLNIHHNLRQNISDIMLHPHSPLSEHFPTNLYDPSPASAESAASSISSTEADTLGEPPEVSLKPSKNLSNENCSFKKQGFKHQLKEYKPAPLTLAETHSPNASVENSHTIVRYGMDNTQNDTKSVESFPATLKVLRKLYPLFEIVSNEMYRLMNNDSFQKFTQSDVYKDASALIEIQEKC
# partner: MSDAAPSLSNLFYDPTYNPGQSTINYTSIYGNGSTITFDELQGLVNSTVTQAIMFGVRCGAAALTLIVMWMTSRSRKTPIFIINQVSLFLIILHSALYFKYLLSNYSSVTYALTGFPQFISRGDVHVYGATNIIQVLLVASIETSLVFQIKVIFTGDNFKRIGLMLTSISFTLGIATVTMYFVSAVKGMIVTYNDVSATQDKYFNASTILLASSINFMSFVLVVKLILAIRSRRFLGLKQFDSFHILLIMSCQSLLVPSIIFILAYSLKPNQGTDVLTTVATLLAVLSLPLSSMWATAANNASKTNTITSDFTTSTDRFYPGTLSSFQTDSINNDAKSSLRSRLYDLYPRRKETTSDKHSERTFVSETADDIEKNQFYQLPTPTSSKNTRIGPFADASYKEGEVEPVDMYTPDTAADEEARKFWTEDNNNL
# B2: Protein SST2 (Saccharomyces cerevisiae), P11972 (parent)
# chain: B1 chain
# partner: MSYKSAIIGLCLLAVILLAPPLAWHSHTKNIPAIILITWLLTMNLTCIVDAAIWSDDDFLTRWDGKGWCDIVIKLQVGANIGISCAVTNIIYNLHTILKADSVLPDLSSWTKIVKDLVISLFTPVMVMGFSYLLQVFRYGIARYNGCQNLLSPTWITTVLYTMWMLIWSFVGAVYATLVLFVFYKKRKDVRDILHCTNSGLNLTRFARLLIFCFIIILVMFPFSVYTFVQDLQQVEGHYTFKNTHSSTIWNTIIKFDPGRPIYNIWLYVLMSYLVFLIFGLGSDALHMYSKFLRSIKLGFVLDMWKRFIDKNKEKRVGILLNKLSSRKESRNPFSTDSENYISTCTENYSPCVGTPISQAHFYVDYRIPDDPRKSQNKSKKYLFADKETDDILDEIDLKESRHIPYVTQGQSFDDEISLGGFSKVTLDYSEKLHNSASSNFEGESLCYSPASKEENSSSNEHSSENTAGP
# B3: Pheromone a factor receptor (Saccharomyces cerevisiae), P06783 (parent)
# chain: B2 partner
# partner: B1 chain
# B4: Pheromone alpha factor receptor (Saccharomyces cerevisiae (Baker's yeast)), P0CI39 (parent)
# chain: B1 partner
# partner: B1 chain
# Variants of: B1
# Conditions: with ste2_yeasx STE2, P0CI39
row,effect of a mutation on the interaction,Variant
1,disrupting interaction,Q304N

# Variants of: B1
# Conditions: with ste2_yeasx STE2, P0CI39
# Remark: another data set of the same source
row,effect of a mutation on the interaction,Variant
1,disrupting interaction,Q304E
2,disrupting interaction,Q304L

# Variants of: B2
# Conditions: with ste3_yeast STE3, P06783
row,effect of a mutation on the interaction,Variant
1,disrupting interaction,Q304N

# Variants of: B3
# Conditions: with sst2_yeast SST2, P11972
row,effect of a mutation on the interaction,Variant
1,increasing interaction,MSYKSAIIGLCLLAVILLAPPLAWHSHTKNIPAIILITWLLTMNLTCIVDAAIWSDDDFLTRWDGKGWCDIVIKLQVGANIGISCAVTNIIYNLHTILKADSVLPDLSSWTKIVKDLVISLFTPVMVMGFSYLLQVFRYGIARYNGCQNLLSPTWITTVLYTMWMLIWSFVGAVYATLVLFVFYKKRKDVRDILHCTNSGLNLTRFARLLIFCFIIILVMFPFSVYTFVQDLQQVEGHYTFKNTHSSTIWNTIIKFDPGRPIYNIWLYVLMSYLVFLIFGLGSDALHMYSKFLRSIKLGFVLDMWKRFIDKNKEKRVGILLNKLSSRKESRNPFSTDSENYISTCTENYSPCVGTPISQAHFYVDYRIPDDPRKSQNKSKKYLFADKETDDILDEIDLKESRHIPYVTQGQSFDDEISLGGFSRVTLDYSERLHNSASSNFEGESLCYSPASREENSSSNEHSSENTAGP [K424R;K432R;K453R]

# Variants of: B4
# Conditions: with sst2_yeast SST2, P11972
row,effect of a mutation on the interaction,Variant
1,increasing interaction,MSDAAPSLSNLFYDPTYNPGQSTINYTSIYGNGSTITFDELQGLVNSTVTQAIMFGVRCGAAALTLIVMWMTSRSRKTPIFIINQVSLFLIILHSALYFKYLLSNYSSVTYALTGFPQFISRGDVHVYGATNIIQVLLVASIETSLVFQIKVIFTGDNFKRIGLMLTSISFTLGIATVTMYFVSAVKGMIVTYNDVSATQDKYFNASTILLASSINFMSFVLVVKLILAIRSRRFLGLKQFDSFHILLIMSCQSLLVPSIIFILAYSLKPNQGTDVLTTVATLLAVLSLPLSSMWATAANNASKTNTITSDFTTSTDRFYPGTLSSFQTDSINNDARSSLRSRLYDLYPRRRETTSDRHSERTFVSETADDIERNQFYQLPTPTSSRNTRIGPFADASYREGEVEPVDMYTPDTAADEEARRFWTEDNNNL [K337R;K352R;K358R;K374R;K387R;K400R;K422R]
